These results are taken from patent US20110118177.

Data set [1] has as its system cyanophycin (multi-L-arginyl-poly-[L-aspartic acid]), Cyanophycin Granule Polypeptide.
Data set [2] deals with bovine serum albumin (BSA) (Roth, Karlsruhe, Germany) (UniProt P02769).
Data set [3] concerns bovine casein (Hammersten-grade) (Merck, Darmstadt, Germany).

Chain of bovine serum albumin (BSA) (Roth, Karlsruhe, Germany) (P02769 25-607): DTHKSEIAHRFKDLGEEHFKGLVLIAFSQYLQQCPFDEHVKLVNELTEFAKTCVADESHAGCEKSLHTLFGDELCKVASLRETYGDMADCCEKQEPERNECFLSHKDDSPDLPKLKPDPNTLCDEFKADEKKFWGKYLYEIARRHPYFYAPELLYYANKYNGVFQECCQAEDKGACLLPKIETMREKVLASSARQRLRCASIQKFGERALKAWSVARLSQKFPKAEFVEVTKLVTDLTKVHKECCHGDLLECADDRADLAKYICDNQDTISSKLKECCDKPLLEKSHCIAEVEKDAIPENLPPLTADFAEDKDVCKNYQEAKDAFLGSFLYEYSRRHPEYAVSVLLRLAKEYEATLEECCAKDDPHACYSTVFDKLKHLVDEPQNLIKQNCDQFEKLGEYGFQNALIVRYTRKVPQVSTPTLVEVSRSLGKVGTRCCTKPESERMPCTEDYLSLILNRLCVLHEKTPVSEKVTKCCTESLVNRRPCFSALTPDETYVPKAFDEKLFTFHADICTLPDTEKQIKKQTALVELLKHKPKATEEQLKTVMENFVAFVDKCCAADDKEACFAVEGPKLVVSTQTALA

“extracellular cyanophycinase (CGPase) CphEal from Pseudomonas alcaligenes strain DIP1”: the “degradation activity (substrate specificity test)” value in data set [1] was “showed the highest degradation activity on CGP”. Besides, the “degradation (in comparison to CGP)” value in data set [2] is listed as “also BSA was partially degraded (65% in comparison to CGP)”. The “degradation (substrate specificity test)” value in data set [3] was “Bovine casein and poly(aspartic acid) were minimally affected by the enzymatic activity of the purified CphEal”.
